Measurements taken from patent publication US10017787B2, “Production of alkenes from 3-hydroxycarboxylic acids via 3-hydroxycarboxyl-nucleotidylic acids” (Global Bioenergies, priority 2013, dated 2018).

Experiments:
(R,S)-3-hydroxybutyrate [1] = test: Propylene production from 3-hydroxybutyrate, M. aquaeolei enzyme and OleC proteins, GC-FID; assay type: biochemical; conditions: 50 mM (R,S)-3-hydroxybutyrate, 10 mM ATP, 2 mg/ml each enzyme, 18 hours at 37° C.
Protocol: The studied enzymes were produced and purified according to the procedure described in Example 1. The studied reaction was carried out under the following conditions
2 mg/ml purified AMP-dependent synthetase/ligase from M. aquaeolei
2 mg/ml purified OleC protein from Shewanella amazonensis or from Chloroflexus aurantiacus
Reaction volume was 0.3 ml.
For the no enzymes control, buffer was used in place of enzymes.
Controls reactions without ATP were realized in parallel.
The reaction mixtures were incubated in 2 ml sealed vials (Interchim) for 18 hours at 37° C. with shaking. Propylene production was analyzed by Gas Chromatography (GC) using Bruker 450-GC gas chromatograph equipped with Flame Ionization Detector (FID). Nitrogen was used as carrier gas with a flow rate of 6 ml/min. Volatile compounds were chromatographically separated on GS-Alumina column (30 m×0.53 mm ID) (Agilent) using an isothermal mode at 130° C. The enzymatic reaction product were identified by comparison with standard of propylene (Sigma-Aldrich), the retention time of propylene in these conditions was 1.57 min.

[2] = substrate: CC(C)(O)CC(=O)O; test: purified protein, by the assay type; conditions: other: 0-10 mM 3-hydroxycarboxylate, 2 mM ATP, 0.1 mg/ml enzyme, pH 7.5
[3] = substrate: CC(O)CC(=O)O; test: purified protein, by the assay type; conditions: other: 0-10 mM 3-hydroxycarboxylate, 2 mM ATP, 0.1 mg/ml enzyme, pH 7.5
[4] = substrate: O=C(O)CCO; test: Kinetic parameters of adenylation of 3-hydroxycarboxylates, continuous spectrophotometric diphosphate release assay; assay type: biochemical, Marinobacter aquaeolei; conditions: other: 0-10 mM 3-hydroxycarboxylate, 2 mM ATP, 0.1 mg/ml enzyme, pH 7.5
Protocol: (§1) The genes coding for the adenylate-forming enzymes were synthesized and the corresponding enzymes were further produced according to the procedure described in Example 1. 3-hydroxypropionic acid (TCI) stock solution was prepared in water with the pH adjusted to 7.5 with 1 M NaOH. The release of diphosphate which is associated with 3-hydroxypropionyl-adenylate formation from 3-hydroxypropionate was quantified using the EnzCheck® Pyrophosphatase Assay Kit (E6645, Life Technologies).
(§2) In this assay, diphosphate was hydrolyzed to inorganic phosphate by inorganic pyrophosphatase and phosphate production coupled to phosphorolysis of the 2-amino-6-mercapto-7-methylpurine ribonucleoside (MESG), catalyzed by the enzyme purine nucleoside phosphorylase (PNP). The chromophoric product, 2-amino-6-mercapto-7-methylpurine, was monitored by absorbance at 360 nm (FIG. 9).
(§3) Kinetic parameters were determined by using the spectrophotometric assay described in Example 2. Reaction mixture for the assay of adenylation activity contained:
(§4) 0-10 mM 3-hydroxycarboxylate
(§5) 0.1 mg/ml of purified AMP-dependent synthetase/ligase from M. aquaeolei
(§6) 2-amino-6-mercapto-7-methylpurine ribonucleoside (MESG), purine nucleoside phosphorylase (PNP) and inorganic pyrophosphatase were added to the reaction mix according to the procedure described in the EnzCheck® Pyrophosphatase Assay Kit.

[5] = substrate: C=CC(O)CC(=O)O; test: as above; assay type: biochemical, Marinobacter aquaeolei; conditions: other: 0-10 mM 3-hydroxycarboxylate, 2 mM ATP, 0.1 mg/ml enzyme, pH 7.5
Protocol: as §1, §2, §3, §4, §5, §6

[6] = substrate: CC[C@@H](O)CC(=O)O; test: as above; assay type: biochemical, Marinobacter aquaeolei; conditions: other: 0-10 mM 3-hydroxycarboxylate, 2 mM ATP, 0.1 mg/ml enzyme, pH 7.5
Protocol: as §1, §2, §3, §4, §5, §6

3-hydroxyisovalerate = test: Isobutene production from 3-hydroxyisovalerate, M. aquaeolei enzyme and OleC proteins, GC-FID; assay type: biochemical; conditions: 50 mM 3-hydroxyisovalerate, 10 mM ATP, 0.6 mg each enzyme in 0.3 ml, 18 hours at 37° C.
Protocol: The studied reaction was carried out under the following conditions
Reaction volume was 0.3 ml
0.6 mg of AMP-dependent synthetase/ligase from M. aquaeolei and 0.6 mg of OleC protein were added to 0.3 ml of reaction mixture. A reaction mixture containing only 0.6 mg of AMP-dependent synthetase/ligase from M. aquaeolei was used as reference. The assays were incubated in 2 ml sealed vials (Interchim) for 18 hours at 37° C. with shaking. Isobutene production was analyzed by Gas Chromatography (GC) using Bruker 450-GC gas chromatograph equipped with Flame Ionization Detector (FID). Nitrogen was used as carrier gas with a flow rate of 6 ml/min. Volatile compounds were chromatographically separated on GS-Alumina column (30 m×0.53 mm ID) (Agilent) using an isothermal mode at 130° C. The enzymatic reaction product were identified by comparison with standard of isobutene (Sigma-Aldrich), the retention time of isobutene in these conditions was 2.40 min.

(R,S)-3-hydroxybutyrate [7] = test: Adenylation of 3-hydroxybutyrate with ATP or ADP as co-substrates, spectrophotometric assay; assay type: biochemical; conditions: 5 mM (R,S)-3-hydroxybutyrate, 0-3.2 mM ATP or ADP, 0.1 mg/ml enzyme (FIGS. 15 and 16)
Protocol: Spectrophotometric assay was performed according to the procedure described in Example 2. The specificity of acyl-CoA synthase from M. algicola and AMP-dependent synthetase/ligase from Burkholderia sp. with respect to co-substrates was analyzed. Standard reaction contained:
0.1 mg/ml of purified enzyme
2-amino-6-mercapto-7-methylpurine ribonucleoside (MESG), purine nucleoside phosphorylase (PNP) and inorganic pyrophosphatase were added to the reaction mix according to the procedure described in the EnzCheck® Pyrophosphatase Assay Kit. A reaction mixture without inorganic pyrophosphatase was used for assays with ADP as co-substrate. Control assays were performed in which either no enzyme was added, or no 3-hydroxybutyrate was added. Each assay was started with the addition of co-substrate (ATP or ADP). Each sample was continuously monitored for the increase of 2-amino-6-mercapto-7-methylpurine at 360 nm on a SpectraMax Plus 384 UV/Vis Microplate Reader (Molecular Devices).

B1: AMP-dependent synthetase/ligase from Marinobacter aquaeolei (Marinobacter nauticus VT8) (protein)
chain: MTSIFDQGLEPRDANYAVQSPIDFIERTASVYPDYPAIIHGAIRRTWAETYDRCLRLASALKGRGIGRGDTVAVMLPNIPAMVECHFGIPMIGAVLNTLNVRLDAEAIAFMLEHGEAKVVIADREFGQVIKDAVRHLEHKPLVIDVDDPEYGEGVQVSDLDYEAFLQEGDPQFQWSFPDNEWDAISLNYTSGTTGNPKGVVYHHRGAYINALGNQTVWSMDMHPVYLWTLPMFHCNGWCFPWTITAMAGTHVCLRRVDPEKILQLIHDHQVTHMCGAPIVLNALLNASPEAKAGIDHEVKSMTAGAAPPAQVIGSIEEMGIKVTHVYGLTEVYGPVTVCAWKSEWDELPLHDRAKIKARQGVRYHTLGGTMVADPNTMQPVPKDGKTIGEIFLRGNTVMKGYLKNPTATEEAFRGGWFHTGDLAVWHEDGYMEIKDRLKDIIISGGENISTIEVEDTLYRHPAVLEAAVVARPDEKWGETPCAFITLKPEAGDVSEDDIINFCREHLARFKVPKTVVFTELPKTSTGKIQKFVLRDQAKDLN
With B1 the Propylene peak area ((R,S)-3-hydroxybutyrate [1]) was 0 arbitrary units, the Km [2] was 10 mM and the kcat [2] was 0.007 s⁻¹. For the same molecule, the Km [3] was 2 mM, the kcat [3] was 0.03 s⁻¹ and the Km [4] was 5 mM. For the same molecule, the kcat [4] was 0.04 s⁻¹, the Km [5] was 3 mM and the kcat [5] was 0.023 s⁻¹. It also gave a Km [6] of 4 mM, a kcat [6] of 0.012 s⁻¹ and an Isobutene peak area (3-hydroxyisovalerate) of 414 arbitrary units.

B2: acyl-CoA synthase from M. algicola: acyl-CoA synthetase from Marinobacter algicola, SEQ ID NO: 2, Uniprot A6EZ54 (protein)
chain: MNSIFDKGLEPTDANNATLTPLDFLARTASVYPEYPAVIHGATRRNWQQTYERCRRLASALADRGVGKGDTVAAMLPNIPPMLECHFGIPMLGAVLNALNTRLDAKAIAFMLEHGEAKVLIADREFGDVINEAVGMLDNPPQVIDVNDPEFSGAGTQVSDLDYDAFVASGDPAFDWQMPADEWDAISLCYTSGTTGNPKGVVYHHRGAYENAMGNQAVWSMGMHPVYLWTLPMFHCNGWCFPWTITAFAGTHVCLRKVEPEKILQLISEHKVSHMCGAPIVLNTLLGASEAAKSSFSHTVQAMTAGAAPPAKVIEAIENMGFRVTHVYGLTEVYGPVTVCAWKSEWDDLPVEDRARIKARQGVRYHTLAGMMVGDPETMEAVPKDGNTIGEIFLRGNTVMKGYLKNPKATEEAFRGGWFHTGDLAVWHADGYAEIKDRLKDIIISGGENISTIEVEDVLYRHPDILEAAVVARPDEKWGETPCAFVTLKPEAGEVSEDDIIAFCRERMAKFKVPKTIVFSELPKTSTGKIQKFVLRDDAKKL
modifications: Marinobacter algicola DG893
For B2, the “formation of 3-hydroxybutyryl-adenylate with ATP or ADP as co-substrate” value ((R,S)-3-hydroxybutyrate [7]) was “able to catalyze the formation of 3-hydroxybutyryl-adenylate by using ATP or ADP as co-substrate”.

B3: AMP-dependent synthetase/ligase from Burkholderia sp.: AMP-dependent synthetase and ligase of Burkholderia sp., SEQ ID NO: 4, Uniprot R4WRJ4 (protein)
chain: MTHSEEIMTTPGIYDEGLPKTAANFAVMTPLTFIERAASVYPNRPAVVHGDVRRTWSETYARTRRLASALAARGIGVGDTVAVMLPNTPEMVEAHFGVPMTGAVLNALNTRLDAATLAFMLTHGEAKAVLVDREFSDVMRRALESVPQKLLVIDVDDSQYAGAGERIGEIEYEALLASGDPAYEWTPPSDEWNAICLNYTSGTTGNPKGVVYHHRGAYTNAVSNILEWDMPAHAVYLWTLPMFHCNGWCFPWTIAARAGVNVCLRRIDAKTVFDLIRNEGVTHYCGAPIVQNMLVNAPDELKAGIAQKVNAMVAGAAPPAAMIEGMERMGFQLTHVYGLTEVYGPATVCAHQAEWSELDIGERARLNARQGVRYHLQDAVTVRDPDTMQLVPPDGETIGEIMFRGNIAMKGYLKNAAATEEAFRGGWFHTGDLAVAYPDGYVRIKDRSKDIIISGGENISSIEVEDVLYRHPAVLAVAVVAKPDARWGETPCAFVELKTGVHVSGEELIAHCKQHLAGFKVPRAIEFCELPKTSTGKIQKFELRKRAGSVTAIDV
modifications: Burkholderia sp. RPE64
In the case of B3, the “formation of 3-hydroxybutyryl-adenylate with ATP or ADP as co-substrate” value ((R,S)-3-hydroxybutyrate [7]) is reported as “able to catalyze the formation of 3-hydroxybutyryl-adenylate by using ATP or ADP as co-substrate”.
